Measured values: US20250222032A1 (published 2025)

Columns and labels:
[1] = biological target: T1, RAS G12D (KRAS, also HRAS and NRAS) peptide on HLA-A*11:01 (human); assay: cytokine release
T1 peptide: VVVGADGVGK

[2] = biological target: T2, RAS G12D (KRAS, also HRAS and NRAS) peptide on HLA-A*11:01 (human); assay: cytokine release
T2 peptide: VVGADGVGK

[3] = biological target: T3, RAS G12C peptide on HLA-A*11:01 (human); assay: cytokine release
T3 peptide: VVVGACGVGK

[4] = biological target: T4, RAS wild type (KRAS, also HRAS and NRAS) peptide on HLA-A*11:01 (human); assay: multimer staining
T4 peptide: VVVGAGGVGK

[5] = biological target: dextramers composed of HLA-A*11:01 complexes loaded with the RAS-WT peptide (human); assay: dual dextramer labeling of TCR T3 transduced T cells, flow cytometry

binding result [1]: recognises
binding result [2]: recognises
binding result [3]: recognises
binding result [4]: recognises
fraction of the T cells that bound the dextramers [5]: 60%
B1: TCR T3 (TCR, V domains shown)
Valpha: GQQLNQSPQSMFIQEGEDVSMNCTSSSIFNTWLWYKQDPGEGPVLLIALYKAGELTSNGRLTAQFGITRKDSFLNISASIPSDVGIYFCAGRREGAQKLVFGQGTRLTINP
Vbeta: GAGVSQSPRYKVAKRGQDVALRCDPISGHVSLFWYQQALGQGPEFLTYFQNEAQLDKSGLPSDRFFAERPEGSVSTLKIQRTQQEDSAVYLCASSSTLMGVNIQYFGAGTRLSVL
